Source: patent publication US20250019463A1 (UCB, published 2025)

How the values were obtained:
[1] = target: T1, human transglutaminase type 2 (TG2) (human, UniProt P21980 2-687); experiment: cell-based or functional assay
T1 sequence: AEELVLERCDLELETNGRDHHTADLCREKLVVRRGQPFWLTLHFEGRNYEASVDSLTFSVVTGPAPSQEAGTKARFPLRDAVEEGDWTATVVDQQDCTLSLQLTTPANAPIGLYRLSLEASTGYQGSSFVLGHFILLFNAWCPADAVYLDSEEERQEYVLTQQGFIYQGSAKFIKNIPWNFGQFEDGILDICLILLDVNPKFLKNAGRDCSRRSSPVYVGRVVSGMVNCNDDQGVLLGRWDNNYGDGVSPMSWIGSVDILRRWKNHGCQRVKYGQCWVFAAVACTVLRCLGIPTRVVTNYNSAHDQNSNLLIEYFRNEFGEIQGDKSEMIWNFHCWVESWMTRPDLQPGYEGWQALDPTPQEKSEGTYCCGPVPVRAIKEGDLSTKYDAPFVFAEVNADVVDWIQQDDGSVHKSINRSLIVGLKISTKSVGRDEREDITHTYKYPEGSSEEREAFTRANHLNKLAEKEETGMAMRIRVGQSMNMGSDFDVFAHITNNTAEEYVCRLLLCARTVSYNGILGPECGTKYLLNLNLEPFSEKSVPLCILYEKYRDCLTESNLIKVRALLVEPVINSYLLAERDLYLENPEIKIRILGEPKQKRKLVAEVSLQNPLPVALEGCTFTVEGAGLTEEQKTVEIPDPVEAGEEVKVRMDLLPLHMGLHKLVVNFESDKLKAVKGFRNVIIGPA

rabbit TG2 = rabbit TG2 (rabbit); experiment: cell-based or functional assay

Binder | IC50 against human TG2 (assay not given) [1] | IC50 against rabbit TG2 (assay not given) (rabbit TG2)
Zampilimab (antibody, V domains shown) VH: EVQLLESGGGLVQPGGSLRLSCAASGFTLSTHAMSWVRQAPGKGLEWVATISSGGRSTYYPDSVKGRFTISRDNSKNTLYLQMNSLRAEDTAVYFCARLISTYWGQGTLVTVSS VL: DITMTQSPSSLSASVGDRVTITCKASQDINSYLTWFQQKPGKAPKILIYLVNRLVDGVPSRFSGSGSGQDYALTISSLQPEDFATYYCLQYDDFPYTFGQGTKVEIK | 0.25 nM | 103 nM
rbBB7 (antibody, V domains shown) VH: EVQLLESGGRLVTPGGSLTLTCAASGIIFSSSAMSWVRQAPGKGLEWVATISSGGRSTYYPDSVKGRFTVSRDSSKNTLYLQMNSLRAEDTAVYYCAKLISPYWGQGTLVTVSS VL: AIKMTQTPSSVSAAVGGTVTISCKASQDINSYLTWFQQKPGQPPKTLIYLTNRLMDGVPSRFSGSGSGQEFLLTISGLECDDAATYYCLQYVDFPYTFGGGTKVVVK | 0.3 nM | 8 nM
